In patent publication US20150299281A1 (ZEALAND PHARMA A S, published 2015):
Square brackets hold non-standard residues; d marks the D form. Aib = CC(C)(N)C(=O)O

T1: human GIP receptor (human, UniProt P48546 22-466)
T1 sequence (looked up): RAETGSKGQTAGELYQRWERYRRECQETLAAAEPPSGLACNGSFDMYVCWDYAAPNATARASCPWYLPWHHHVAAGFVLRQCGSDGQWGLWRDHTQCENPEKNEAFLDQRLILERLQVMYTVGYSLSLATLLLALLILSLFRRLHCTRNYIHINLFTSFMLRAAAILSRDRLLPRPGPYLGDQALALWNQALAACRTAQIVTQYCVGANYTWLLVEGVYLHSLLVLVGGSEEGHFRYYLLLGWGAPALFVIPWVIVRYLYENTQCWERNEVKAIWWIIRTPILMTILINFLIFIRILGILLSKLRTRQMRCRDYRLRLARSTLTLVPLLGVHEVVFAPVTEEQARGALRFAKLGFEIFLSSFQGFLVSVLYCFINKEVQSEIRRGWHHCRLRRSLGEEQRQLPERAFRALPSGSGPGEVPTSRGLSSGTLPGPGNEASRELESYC


What was measured:
human GLP-1 receptor = human GLP-1 receptor (human, UniProt P43220 24-463); experiment: cell-based or functional assay
human GIP receptor = target: T1, human GIP receptor; experiment: cell-based or functional assay

EC50, cAMP induction in HEK293 cells expressing human GLP-1 R (human GLP-1 receptor) [nM]	EC50, cAMP induction in HEK293 cells expressing human GIP R (human GIP receptor) [nM]	Binder
0.0087	0.036	H-Y[Aib]EGTFTSDYSIYLEKKAQRAFVNWLLA[Aib]K-NH2 (SMILES CC[C@H](C)[C@H](NC(=O)[C@H](CO)NC(=O)[C@H](Cc1ccc(O)cc1)NC(=O)[C@H](CC(=O)O)NC(=O)[C@H](CO)NC(=O)[C@@H](NC(=O)[C@H](Cc1ccccc1)NC(=O)[C@@H](NC(=O)CNC(=O)[C@H](CCC(=O)O)NC(=O)C(C)(C)NC(=O)[C@@H](N)Cc1ccc(O)cc1)[C@@H](C)O)[C@@H](C)O)C(=O)N[C@@H](Cc1ccc(O)cc1)C(=O)N[C@@H](CC(C)C)C(=O)N[C@@H](CCC(=O)O)C(=O)N[C@@H](CCCCN)C(=O)N[C@@H](CCCCN)C(=O)N[C@@H](C)C(=O)N[C@@H](CCC(N)=O)C(=O)N[C@@H](CCCNC(=N)N)C(=O)N[C@@H](C)C(=O)N[C@@H](Cc1ccccc1)C(=O)N[C@H](C(=O)N[C@@H](CC(N)=O)C(=O)N[C@@H](Cc1c[nH]c2ccccc12)C(=O)N[C@@H](CC(C)C)C(=O)N[C@@H](CC(C)C)C(=O)N[C@@H](C)C(=O)NC(C)(C)C(=O)N[C@@H](CCCCN)C(N)=O)C(C)C) [Compound 14]
0.032	0.14	H-Y[Aib]EGTFTSDYSIYSDKKAQRAFVNWLLA[Aib]K-NH2 (SMILES CC[C@H](C)[C@H](NC(=O)[C@H](CO)NC(=O)[C@H](Cc1ccc(O)cc1)NC(=O)[C@H](CC(=O)O)NC(=O)[C@H](CO)NC(=O)[C@@H](NC(=O)[C@H](Cc1ccccc1)NC(=O)[C@@H](NC(=O)CNC(=O)[C@H](CCC(=O)O)NC(=O)C(C)(C)NC(=O)[C@@H](N)Cc1ccc(O)cc1)[C@@H](C)O)[C@@H](C)O)C(=O)N[C@@H](Cc1ccc(O)cc1)C(=O)N[C@@H](CO)C(=O)N[C@@H](CC(=O)O)C(=O)N[C@@H](CCCCN)C(=O)N[C@@H](CCCCN)C(=O)N[C@@H](C)C(=O)N[C@@H](CCC(N)=O)C(=O)N[C@@H](CCCNC(=N)N)C(=O)N[C@@H](C)C(=O)N[C@@H](Cc1ccccc1)C(=O)N[C@H](C(=O)N[C@@H](CC(N)=O)C(=O)N[C@@H](Cc1c[nH]c2ccccc12)C(=O)N[C@@H](CC(C)C)C(=O)N[C@@H](CC(C)C)C(=O)N[C@@H](C)C(=O)NC(C)(C)C(=O)N[C@@H](CCCCN)C(N)=O)C(C)C) [Compound 13]
0.01	0.06	H-Y[Aib]EGTFTSDYSIALEKKAQRAFVNWLLA[Aib]K-NH2 (SMILES CC[C@H](C)[C@H](NC(=O)[C@H](CO)NC(=O)[C@H](Cc1ccc(O)cc1)NC(=O)[C@H](CC(=O)O)NC(=O)[C@H](CO)NC(=O)[C@@H](NC(=O)[C@H](Cc1ccccc1)NC(=O)[C@@H](NC(=O)CNC(=O)[C@H](CCC(=O)O)NC(=O)C(C)(C)NC(=O)[C@@H](N)Cc1ccc(O)cc1)[C@@H](C)O)[C@@H](C)O)C(=O)N[C@@H](C)C(=O)N[C@@H](CC(C)C)C(=O)N[C@@H](CCC(=O)O)C(=O)N[C@@H](CCCCN)C(=O)N[C@@H](CCCCN)C(=O)N[C@@H](C)C(=O)N[C@@H](CCC(N)=O)C(=O)N[C@@H](CCCNC(=N)N)C(=O)N[C@@H](C)C(=O)N[C@@H](Cc1ccccc1)C(=O)N[C@H](C(=O)N[C@@H](CC(N)=O)C(=O)N[C@@H](Cc1c[nH]c2ccccc12)C(=O)N[C@@H](CC(C)C)C(=O)N[C@@H](CC(C)C)C(=O)N[C@@H](C)C(=O)NC(C)(C)C(=O)N[C@@H](CCCCN)C(N)=O)C(C)C) [Compound 15]
